Assay [1] addresses DENV-1 virus-like particle (prM/E VLP) (dengue virus serotype 1).
Assay [2] addresses ZIKV VLP with E R193A (Zika virus). Description: ELISA. Background: In an ELISA, binding on a coated surface is turned into a signal by an enzyme label.
The target in assay [3] is ZIKV VLP with E T231A (Zika virus). Description: ELISA.
For assay [4], the target named is T1, mature form virus-like particles of dengue virus serotype 2 (mD2VLP) (Dengue virus type 2, strain 16681 …, UniProt A0A173DS53).
T1 construct: also called mature DENV-2 VLP; pVD2i-C18S; copies: 60 +
Description: cryo-EM structure. Conditions: both partners purified.

B1: huMAb K5 expressed as full-length human IgG1 (K5-IgG1) (antibody, V domains shown)
VH: EVQLLESGAEVKKPGSSVKVSCQASGDTFSNSDINWVRQAPGQGLEWMGGIIPAYDTTNYARTFQGRVAITADKSTSTVYMELSRLRSEDTAVYYCATDQRDYFGLGNHFNAQHFWGQGTLVTVSS
VL: AIRMTQTPLSLSASVGDRVTITCRASQSISNYLNWYQQRPGKAPNLLIYTASNLHSGVPSRFSGSGSGTDFTLTISSLQPEDFATYYCQQSYSGGYTFGQGPSWEIK
In assay [1], B1 returned an FRμNT50, neutralisation of the prototype DENV-1 strain on Vero cells of 0.771 µg/mL. The percent loss of binding relative to ZIKV WT VLP in assay [2] and in assay [3] was 70% in each case.

B2: huMAb K8b expressed as full-length human IgG1 (K8b-IgG1) (antibody, V domains shown)
VH: QVQLVQPGAEVVKPGASVKLSCKTSGYTFTSNWMHWVKQAPGQGLEWIGEIDPSDSYTNYNQNFQGKAKLTVDKSTSTAYMEVSSLRSDDTAVYYCARGSNPYYYAMDYWGQGTSVTVSS
VL: EIVMMQSPLTLSLSPGERATLSCRASQSVSSNYLAWYQQRPGQAPRLLIYGVSSRATGVPVRFSGSGSGTDFTLTISRLEPEDFAVYYCQHYGGSLSWTFGQGTKVEIK
notes: also called pVCHIg-hG1-K8b + pVCLIg-hκ-K8b
Take B2: the “stoichiometry N” value in assay [4] was 60 F(ab) arms per VLP of 60 E proteins.
